The record followed here is patent US10925971B2, “Methods of treating PRLR positive breast cancer” (Regeneron Pharmaceuticals, Inc., priority 2016, dated 2021).

Assay [1] has as its target T1, native PRLR expressing T47D cells (Homo sapiens, UniProt P16471).
T1 construct: a native PRLR expressing cell line (T47D); endogenous in cells; host or cells: T47D
T1 sequence (P16471 25-622): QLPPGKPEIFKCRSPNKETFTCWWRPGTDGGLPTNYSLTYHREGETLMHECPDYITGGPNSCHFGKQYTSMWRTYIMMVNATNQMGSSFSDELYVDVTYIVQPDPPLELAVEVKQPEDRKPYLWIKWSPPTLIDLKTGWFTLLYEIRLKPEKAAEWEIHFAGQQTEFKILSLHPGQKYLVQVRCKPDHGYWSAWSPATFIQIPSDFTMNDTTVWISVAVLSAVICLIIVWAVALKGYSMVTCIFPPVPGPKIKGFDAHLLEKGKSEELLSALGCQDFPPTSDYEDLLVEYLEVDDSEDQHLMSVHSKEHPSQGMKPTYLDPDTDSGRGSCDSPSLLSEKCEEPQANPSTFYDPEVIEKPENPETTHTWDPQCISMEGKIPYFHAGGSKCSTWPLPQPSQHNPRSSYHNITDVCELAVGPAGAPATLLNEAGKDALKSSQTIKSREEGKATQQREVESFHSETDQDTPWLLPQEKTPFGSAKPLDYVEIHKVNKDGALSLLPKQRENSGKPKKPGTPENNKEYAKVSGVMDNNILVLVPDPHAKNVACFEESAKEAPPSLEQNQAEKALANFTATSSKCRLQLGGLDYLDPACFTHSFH
The experiment in a line: FACS cell surface binding. A digest of the protocol: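 Flow cytometry on native PRLR-expressing T47D cells, alongside PRLR-overexpressing and parental HEK293 lines. Cells (1×10^5) incubated with antibody at 10 μg/ml, 30 min on ice, then PE anti-human secondary; binding reported as MFI fold over isotype control.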

Assay [2] concerns the target T2, dimeric human PRLR (hPRLR.mFc; SEQ ID NO:402) (Homo sapiens, UniProt P16471).
T2 construct: dimeric (hPRLR.mFc)
The assay can be described thus: Surface plasmon resonance (Biacore T200), antibody-capture format. The class given is binding. As to conditions: analyte hPRLR.mFc. A digest of the protocol: (§1)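 Antibodies (human IgG1 Fc) captured on an anti-human Fc sensor surface; soluble monomeric (.mmh) or dimeric (.mFc) PRLR injected as analyte. ka and kd obtained by fitting to a 1:1 binding model.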
In general terms: SPR reads the build-up and loss of mass on a sensor chip optically.

In assay [3] the test system is Macaca fascicularis PRLR (mfPRLR.mmh; SEQ ID NO:403). The assay is described as above. The assay is classed as binding. To be noted: analyte mfPRLR.mmh. A digest of the protocol:
as §1

Assay [4] has as its target T3, monomeric human PRLR (hPRLR.mmh; SEQ ID NO:401) (Homo sapiens, UniProt P16471).
T3 construct: soluble monomeric (hPRLR.mmh); mmh (myc-myc-hexahistidine) (C)
Described as above. The assay is classed as binding. As to conditions: analyte hPRLR.mmh. Summed up:
as §1

Assay [5] deals with T4, monkey PRLR on HEK293/mfPRLR cells (Macaca fascicularis, UniProt A0A2K5WXK1).
T4 construct: HA; expressed in transfected cells; host or cells: HEK293
T4 sequence (A0A2K5WXK1 25-619): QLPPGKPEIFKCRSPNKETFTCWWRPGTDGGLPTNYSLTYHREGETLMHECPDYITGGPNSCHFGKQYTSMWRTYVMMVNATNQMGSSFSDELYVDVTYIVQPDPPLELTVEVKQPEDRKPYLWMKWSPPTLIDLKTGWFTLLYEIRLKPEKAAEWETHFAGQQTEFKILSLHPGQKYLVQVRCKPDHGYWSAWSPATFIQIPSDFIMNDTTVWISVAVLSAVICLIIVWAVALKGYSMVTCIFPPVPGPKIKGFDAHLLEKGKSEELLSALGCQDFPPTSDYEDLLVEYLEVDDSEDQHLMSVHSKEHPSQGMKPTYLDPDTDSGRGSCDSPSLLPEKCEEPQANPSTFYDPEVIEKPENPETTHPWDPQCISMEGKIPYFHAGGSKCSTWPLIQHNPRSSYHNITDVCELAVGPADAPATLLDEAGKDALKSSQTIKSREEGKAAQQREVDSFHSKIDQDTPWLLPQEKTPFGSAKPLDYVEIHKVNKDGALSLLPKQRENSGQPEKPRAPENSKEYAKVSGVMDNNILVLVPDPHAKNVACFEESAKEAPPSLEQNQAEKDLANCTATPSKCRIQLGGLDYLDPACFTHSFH
The assay can be described thus: FACS cell surface binding. Summed up:
(§2)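 Values are mean fluorescence intensity relative to an isotype control (background). Antibodies at 10 μg/ml were incubated on ice for 30 min with HEK293 lines stably overexpressing HA-tagged species PRLR or with parental cells. A PE-conjugated anti-human secondary was used for detection.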

Assay [6] addresses T5, human PRLR on HEK293/hPRLR cells (Homo sapiens, UniProt P16471).
T5 construct: HA; expressed in transfected cells; host or cells: HEK293
T5 sequence (P16471 25-622): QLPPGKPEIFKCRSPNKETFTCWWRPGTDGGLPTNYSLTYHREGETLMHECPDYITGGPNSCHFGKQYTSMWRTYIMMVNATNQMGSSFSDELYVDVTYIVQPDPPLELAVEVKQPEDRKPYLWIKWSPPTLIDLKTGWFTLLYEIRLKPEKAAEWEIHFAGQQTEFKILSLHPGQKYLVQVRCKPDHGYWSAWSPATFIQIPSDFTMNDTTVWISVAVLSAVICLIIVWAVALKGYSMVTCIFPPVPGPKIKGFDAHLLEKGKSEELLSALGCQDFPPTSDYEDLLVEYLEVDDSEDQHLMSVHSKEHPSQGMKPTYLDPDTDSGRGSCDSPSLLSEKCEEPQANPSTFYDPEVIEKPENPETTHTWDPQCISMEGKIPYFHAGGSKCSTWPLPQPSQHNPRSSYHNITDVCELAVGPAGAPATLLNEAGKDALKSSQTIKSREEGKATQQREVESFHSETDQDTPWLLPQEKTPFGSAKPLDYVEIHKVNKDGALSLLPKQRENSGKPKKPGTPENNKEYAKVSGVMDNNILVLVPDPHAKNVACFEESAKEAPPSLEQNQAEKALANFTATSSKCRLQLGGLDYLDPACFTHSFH
The assay can be described thus: FACS cell surface binding. A digest of the protocol:
as §2

The target in assay [7] is T6, mouse PRLR on HEK293/mPRLR cells (Mus musculus, UniProt Q08501).
T6 construct: HA; expressed in transfected cells; host or cells: HEK293
T6 sequence (Q08501 20-608): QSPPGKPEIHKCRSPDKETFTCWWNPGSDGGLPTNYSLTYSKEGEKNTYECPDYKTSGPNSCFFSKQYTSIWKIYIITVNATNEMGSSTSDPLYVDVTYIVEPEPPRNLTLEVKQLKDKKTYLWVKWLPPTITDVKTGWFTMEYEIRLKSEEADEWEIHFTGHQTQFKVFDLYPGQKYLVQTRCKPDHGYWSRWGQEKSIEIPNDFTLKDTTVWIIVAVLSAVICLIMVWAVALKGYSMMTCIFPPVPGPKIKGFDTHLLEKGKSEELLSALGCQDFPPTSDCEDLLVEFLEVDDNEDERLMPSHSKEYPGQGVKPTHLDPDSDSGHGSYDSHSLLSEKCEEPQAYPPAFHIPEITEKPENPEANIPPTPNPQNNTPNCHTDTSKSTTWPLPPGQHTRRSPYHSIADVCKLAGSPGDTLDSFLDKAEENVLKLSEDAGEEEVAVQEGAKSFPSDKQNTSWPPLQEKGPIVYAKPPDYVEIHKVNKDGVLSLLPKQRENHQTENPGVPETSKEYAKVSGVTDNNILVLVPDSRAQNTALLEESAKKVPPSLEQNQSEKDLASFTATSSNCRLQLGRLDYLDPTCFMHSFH
The experiment in a line: FACS cell surface binding. A digest of the protocol:
as §2

Assay [8] deals with HEK293 parental cells. The experiment in a line: FACS cell surface binding. Set-up: species or system human. A digest of the protocol:
as §2

T2 sequence (P16471 with tags, fused parts or gaps): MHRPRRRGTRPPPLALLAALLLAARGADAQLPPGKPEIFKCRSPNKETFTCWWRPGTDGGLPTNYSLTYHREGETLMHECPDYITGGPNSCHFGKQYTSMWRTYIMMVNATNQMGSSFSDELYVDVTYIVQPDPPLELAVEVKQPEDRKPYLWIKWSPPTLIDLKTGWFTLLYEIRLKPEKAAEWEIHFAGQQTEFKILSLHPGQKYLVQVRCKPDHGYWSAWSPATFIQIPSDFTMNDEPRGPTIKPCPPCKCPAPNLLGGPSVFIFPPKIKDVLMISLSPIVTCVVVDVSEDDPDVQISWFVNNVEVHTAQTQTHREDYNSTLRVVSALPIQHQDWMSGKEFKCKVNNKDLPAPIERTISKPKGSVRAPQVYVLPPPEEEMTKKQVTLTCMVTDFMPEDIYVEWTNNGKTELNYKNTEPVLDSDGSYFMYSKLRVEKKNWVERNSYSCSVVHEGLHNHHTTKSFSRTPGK
T3 sequence (P16471 with tags, fused parts or gaps): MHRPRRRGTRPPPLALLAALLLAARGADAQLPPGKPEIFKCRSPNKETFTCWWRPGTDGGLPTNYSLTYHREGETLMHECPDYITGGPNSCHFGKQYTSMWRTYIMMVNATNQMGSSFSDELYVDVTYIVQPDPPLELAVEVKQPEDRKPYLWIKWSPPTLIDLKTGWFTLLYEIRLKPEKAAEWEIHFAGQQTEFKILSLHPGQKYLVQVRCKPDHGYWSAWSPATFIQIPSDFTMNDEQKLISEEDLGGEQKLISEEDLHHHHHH
Chain of Macaca fascicularis PRLR (mfPRLR.mmh; SEQ ID NO:403) (as listed by the source): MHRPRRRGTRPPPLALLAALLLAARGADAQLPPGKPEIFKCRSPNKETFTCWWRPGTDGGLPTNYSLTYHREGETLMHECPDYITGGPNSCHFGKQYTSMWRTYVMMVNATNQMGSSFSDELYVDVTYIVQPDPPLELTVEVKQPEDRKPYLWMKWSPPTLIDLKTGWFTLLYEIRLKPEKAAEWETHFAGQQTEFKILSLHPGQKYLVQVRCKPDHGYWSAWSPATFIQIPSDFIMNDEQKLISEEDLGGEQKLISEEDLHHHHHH

B1: H1H6800P: fully human anti-PRLR antibody, human IgG1 Fc; HCVR/LCVR SEQ ID NOs 194/202 (antibody, V domains shown)
VH: EVQLVESGGGLVQPGRSLRLSCAASGFTFDGYAMHWVRQGPGKGLEWVSGISWYSDTLGYADSVKGRFTISRDNAKNSLYLQMNSLRTEDTAFYYCAKISSSGWAFDYWGQGTLVTVSS
VL: EIVLTQSPGTLSLSPGERATLSCRASHSVSSAYLAWYQQKPGQTPRLLIYGTSSRATGIPDRFSGSGSGTDFTLTISRLEPEDFAVYYCQQYGSSPLFTFGPGTKVDIK
Regarding B1, the “FACS Cell Binding” value in assay [1] was determined as 41 Fold Above Background; in assay [5] it was 29 Fold Above Background; in assay [6], 35 Fold Above Background; in assay [7] it was 1 Fold Above Background; in assay [8] it was 1 Fold Above Background. Further, the ka in assay [2] (25° C.) was 473000 M/s; in assay [2] (37° C.), 644000 M/s; in assay [3] (25° C.) it was 303000 M/s; in assay [3] (37° C.), 439000 M/s; in assay [4] (25° C.) it was 421000 M/s; in assay [4] (37° C.) it was 808000 M/s. Moreover, the kd was 8.69e-05 s⁻¹ in assay [2] (25° C.); 0.000147 s⁻¹ in assay [2] (37° C.); 0.00038 s⁻¹ in assay [3] (25° C.); 0.00109 s⁻¹ in assay [3] (37° C.); 0.000409 s⁻¹ in assay [4] (25° C.); 0.00119 s⁻¹ in assay [4] (37° C.).

B2: H1H6792P: fully human anti-PRLR antibody, human IgG1 Fc; HCVR/LCVR SEQ ID NOs 130/138 (antibody, V domains shown)
VH: EVQLVESGGGLVQPGRSLRLSCAASGFTLDDHAVHWVRQAPGKGLEWVSGISWNSVYIDYADSVKGRFTIFRDNAKNSLYLQMNSLRAEDTAFYYCARDIEGARDYWGQGTLVTVSS
VL: DIQMTQSPSSLSASVGDRVTITCRASQGIRNDLGWYQQKPGKAPKRLIYAASSLQSGVPSRFSGSGYGTEFTLTISSLQPEDFAPYYCLQHNSYPLTFGGGTKVEIK
For the molecule B2, the “FACS Cell Binding” value in assay [1] was 37 Fold Above Background; in assay [5], 28 Fold Above Background; in assay [6], 37 Fold Above Background; in assay [7] it was 3 Fold Above Background; in assay [8], 1 Fold Above Background. The ka in assay [2] (25° C.) was 303000 M/s; in assay [2] (37° C.), 499000 M/s; in assay [3] (25° C.) it was 236000 M/s; in assay [3] (37° C.) it was 305000 M/s; in assay [4] (25° C.) it was 324000 M/s; in assay [4] (37° C.), 435000 M/s. Moreover, the kd turned out to be 9.48e-05 s⁻¹ in assay [2] (25° C.); 0.000176 s⁻¹ in assay [2] (37° C.); 0.000983 s⁻¹ in assay [3] (25° C.); 0.00286 s⁻¹ in assay [3] (37° C.); 0.000794 s⁻¹ in assay [4] (25° C.); 0.00229 s⁻¹ in assay [4] (37° C.).

B3: H1H6793P: fully human anti-PRLR antibody, human IgG1 Fc; HCVR/LCVR SEQ ID NOs 146/154 (antibody, V domains shown)
VH: EVQLVESGGGLVQPGGSLRLSCAASGFSFSIYAMSWFRQAPGKGLEWVSAINGRGDGTHYADSVKGRFTISRDNSKTTLYLQMSSLRAEDTAVYYCAKPVMSTNGFDIWGQGTMVTVSS
VL: DIQMTQSPSTLSASVGDRVTITCRASQSISSWLAWYQLKPGKAPKLLIYKASNLESGVPSRFSGSGSGTEFTLTISSLQPDDFATYYCQQYNIYWTFGQGTKVEIK
On to B3, for which the “FACS Cell Binding” value is 43 Fold Above Background in assay [1]; 32 Fold Above Background in assay [5]; 2 Fold Above Background in assay [6]; 2 Fold Above Background in assay [7]; 2 Fold Above Background in assay [8]. The ka is 229000 M/s in assay [2] (25° C.); 410000 M/s in assay [2] (37° C.); 177000 M/s in assay [3] (25° C.); 233000 M/s in assay [3] (37° C.); 235000 M/s in assay [4] (25° C.); 339000 M/s in assay [4] (37° C.). In addition, the kd was found to be 7.57e-05 s⁻¹ in assay [2] (25° C.); 0.000142 s⁻¹ in assay [2] (37° C.); 0.000393 s⁻¹ in assay [3] (25° C.); 0.00107 s⁻¹ in assay [3] (37° C.); 0.000332 s⁻¹ in assay [4] (25° C.); 0.00102 s⁻¹ in assay [4] (37° C.).

B4: H1H6801P: fully human anti-PRLR antibody, human IgG1 Fc; HCVR/LCVR SEQ ID NOs 210/218 (antibody, V domains shown)
VH: QVQLQQSGPGLVKPSQTLSLTCVISGDSVSSNTAWNWVRQSPSRGLEWLGRTYYRSKWYNDYAVSVKSRITINPDTSKNQFSLLMNSVTPEDTAVYYCARVVRGLNYFDYWGQGTLVTVSS
VL: DIVMTQSPDSLAVSLGERATINCKSSQSVLYNSNNKNYLAWYQQKPGQPPKLLIYWSSSRESGVPDRFSGSGSGTDFTLTISGLQAEDVAIYYCQQYSTIPYTFGQGTKLEIK
Turning to B4, the “FACS Cell Binding” value is given as 45 Fold Above Background in assay [1]; 88 Fold Above Background in assay [5]; 47 Fold Above Background in assay [6]; 56 Fold Above Background in assay [7]; 7 Fold Above Background in assay [8]. For the same molecule, the ka turned out to be 675000 M/s in assay [2] (25° C.); 793000 M/s in assay [2] (37° C.); 657000 M/s in assay [3] (25° C.); 711000 M/s in assay [3] (37° C.); 846000 M/s in assay [4] (25° C.); 951000 M/s in assay [4] (37° C.). Moreover, the kd in assay [2] (25° C.) came to 0.000109 s⁻¹; in assay [2] (37° C.) it was 0.000221 s⁻¹; in assay [3] (25° C.), 0.00123 s⁻¹; in assay [3] (37° C.) it was 0.00771 s⁻¹; in assay [4] (25° C.), 0.000756 s⁻¹; in assay [4] (37° C.), 0.00441 s⁻¹.
